Target: microtubule (MT) of HeLa cells (human (endogenous in HeLa)) (UniProt P68363)
Assay: single-molecule live-cell imaging

UniProt P68363, sequence (P68363 whole entry): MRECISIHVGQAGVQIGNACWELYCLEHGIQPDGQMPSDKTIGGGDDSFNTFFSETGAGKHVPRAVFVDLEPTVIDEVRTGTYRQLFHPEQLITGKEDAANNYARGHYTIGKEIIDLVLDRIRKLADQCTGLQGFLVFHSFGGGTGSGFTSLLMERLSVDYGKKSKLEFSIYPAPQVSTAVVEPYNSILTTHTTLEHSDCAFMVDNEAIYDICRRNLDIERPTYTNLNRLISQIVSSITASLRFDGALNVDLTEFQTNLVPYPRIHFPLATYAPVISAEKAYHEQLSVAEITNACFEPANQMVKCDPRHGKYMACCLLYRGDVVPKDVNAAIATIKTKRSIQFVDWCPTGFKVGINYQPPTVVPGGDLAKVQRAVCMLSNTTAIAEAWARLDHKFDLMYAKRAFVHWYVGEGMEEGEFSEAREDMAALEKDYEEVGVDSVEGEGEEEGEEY

For “mouse dynein heavy chain (DYNC1H1) tagged with GFP (from UniProt Q9JHU4 1-4644) (natural protein)”, which koff is on record?
The koff was 1.7 s⁻¹.

What about the mean residence time of the same substance?
The mean residence time was 0.55 s.

From paper doi:10.1101/2021.04.05.438428
